Data from publication PMC7982615, “Phase 1 study of telisotuzumab vedotin in Japanese patients with advanced solid tumors” (Cancer Medicine, 2021).

Experiment: Safety and tolerability (TEAEs, DLTs, AESIs) in phase 1 dose-escalation study of teliso‐v
Assay type: in vivo, human
Description: This phase 1, open‐label, dose‐escalation clinical trial was conducted at two sites in Japan (NCT03311477). Enrollment began on November 6, 2017, and the trial was completed on March 4, 2019.
Escalation into the higher dose level proceeded if the first three evaluable patients in the lower dose level completed the first‐cycle (for at least 21 days) safety assessment without experiencing a dose‐limiting toxicity (DLT). DLT evaluations for dose escalation and determination of RP2D were carried out by investigators, study sponsor, and an independent safety monitor. […] No premedication was required. On the basis of confirmed availability of archival tumor tissue at enrollment, patients were retrospectively analyzed for c‐Met expression and MET amplification. c‐Met expression was determined by immunohistochemistry (IHC), and MET amplification was determined by fluorescence in situ hybridization or sequencing of plasma or tumor DNA.
Safety assessments included treatment‐emergent adverse events (TEAEs) graded according to the National Cancer Institute Common Terminology Criteria for Adverse Events version 4.03. TEAEs, vital signs, physical examinations, electrocardiograms, laboratory tests, and ECOG performance status were monitored during the study. Any grade ≥3 study drug‐related nonhematologic toxicity was documented as a DLT, except as follows: grade 3 nausea or vomiting lasting ≤48 hours that was successfully managed with antiemetics; grade 3 diarrhea successfully managed with antidiarrheal; grade 3 constipation lasting ≤7 days; grade 3 acute infusion reaction that resolved to grade ≤1 within 24 hours after the end of dosing; grade 3 and 4 laboratory tests including but not limited to lactate dehydrogenase, alkaline phosphatase, and gamma‐glutamyl transferase that were considered nonclinically significant by the investigator; liver function test abnormalities; grade 3 and 4 electrolyte imbalance unless associated with clinical symptomatology despite supplementation; and grade 3 hyperglycemia that was manageable without hospitalization. The following hematologic toxicities were documented as a DLT: any grade 4 hematologic toxicity (excluding febrile neutropenia or leukopenia lasting for ≤7 days, or lymphopenia); anemia requiring red blood cell transfusion; thrombocytopenia requiring platelet transfusion; grade 3 thrombocytopenia in the presence of grade ≥2 bleeding; and grade ≥3 febrile neutropenia. Toxicity management criteria are described in the Supplementary appendix.
All data were summarized and tabulated by dose cohort. Categoric data were summarized in terms of frequency counts and percentages. Continuous data were summarized using descriptive statistics, including number of observations, mean, standard deviation, median, minimum, and maximum. No formal statistical analysis was performed for efficacy variables, which were all exploratory in nature. ORR was defined as the proportion of patients with a confirmed partial response (PR) or complete response (CR). Duration of response was defined as time from a patient's initial objective response to the first date of disease progression (PD) or death. The overall disease control rate was defined as the proportion of patients with CR, PR, or stable disease (SD). […] PFS was estimated using the Kaplan–Meier method. Efficacy analyses are presented with two‐sided exact 95% binomial CI.

Question: With “Teliso‐v: antibody‐drug conjugate: anti–c‐Met humanized monoclonal antibody ABT‐700 coupled to monomethyl auristatin E through a valine‐citrulline linker, drug:antibody ratio approximately three” as the substance, how does the “Alanine aminotransferase increased, TEAE regardless of relationship” value (2.4 mg/kg Q3W, n = 3) read?
Answer: 0 n (%)

Question: What about the “Alanine aminotransferase increased, TEAE related to teliso‐v” value (2.4 mg/kg Q3W, n = 3) of the same substance?
Answer: 0 n (%)

Question: What about the “Alopecia, TEAE regardless of relationship” value (2.4 mg/kg Q3W, n = 3) of the same substance?
Answer: 0 n (%)

Question: What about the “Alopecia, TEAE related to teliso‐v” value (2.4 mg/kg Q3W, n = 3) of the same substance?
Answer: 0 n (%)

Question: And the “Anemia, TEAE regardless of relationship” value (2.4 mg/kg Q3W, n = 3)?
Answer: 1 (33) n (%)

Question: What about the “Aspartate aminotransferase increased, TEAE regardless of relationship” value (2.4 mg/kg Q3W, n = 3) of the same substance?
Answer: 0 n (%)

Question: What about the “Aspartate aminotransferase increased, TEAE related to teliso‐v” value (2.4 mg/kg Q3W, n = 3) of the same substance?
Answer: 0 n (%)

Question: And the “Back pain, TEAE regardless of relationship” value (2.4 mg/kg Q3W, n = 3)?
Answer: 1 (33) n (%)

Question: And the “Constipation, TEAE regardless of relationship” value (2.4 mg/kg Q3W, n = 3)?
Answer: 0 n (%)

Question: What about the “Decreased appetite, TEAE regardless of relationship” value (2.4 mg/kg Q3W, n = 3) of the same substance?
Answer: 2 (67) n (%)

Question: What about the “Decreased appetite, TEAE related to teliso‐v” value (2.4 mg/kg Q3W, n = 3) of the same substance?
Answer: 2 (67) n (%)

Question: What about the “Diarrhea, TEAE regardless of relationship” value (2.4 mg/kg Q3W, n = 3) of the same substance?
Answer: 1 (33) n (%)

Question: And the “Fatigue, TEAE regardless of relationship” value (2.4 mg/kg Q3W, n = 3)?
Answer: 1 (33) n (%)

Question: What about the “Fatigue, TEAE related to teliso‐v” value (2.4 mg/kg Q3W, n = 3) of the same substance?
Answer: 1 (33) n (%)

Question: What about the “Hypoalbuminemia, TEAE regardless of relationship” value (2.4 mg/kg Q3W, n = 3) of the same substance?
Answer: 0 n (%)

Question: And the “Malaise, TEAE regardless of relationship” value (2.4 mg/kg Q3W, n = 3)?
Answer: 2 (67) n (%)

Question: And the “Malaise, TEAE related to teliso‐v” value (2.4 mg/kg Q3W, n = 3)?
Answer: 2 (67) n (%)

Question: And the “Nausea, TEAE regardless of relationship” value (2.4 mg/kg Q3W, n = 3)?
Answer: 1 (33) n (%)

Question: And the “Nausea, TEAE related to teliso‐v” value (2.4 mg/kg Q3W, n = 3)?
Answer: 1 (33) n (%)

Question: And the “Neutrophil count decreased, TEAE regardless of relationship” value (2.4 mg/kg Q3W, n = 3)?
Answer: 0 n (%)

Question: What about the “Neutrophil count decreased, TEAE related to teliso‐v” value (2.4 mg/kg Q3W, n = 3) of the same substance?
Answer: 0 n (%)

Question: What about the “Peripheral neuropathy, TEAE regardless of relationship” value (2.4 mg/kg Q3W, n = 3) of the same substance?
Answer: 2 (67) n (%)

Question: And the “Peripheral neuropathy, TEAE related to teliso‐v” value (2.4 mg/kg Q3W, n = 3)?
Answer: 2 (67) n (%)

Question: What about the “Peripheral sensory neuropathy, TEAE regardless of relationship” value (2.4 mg/kg Q3W, n = 3) of the same substance?
Answer: 1 (33) n (%)

Question: What about the “Peripheral sensory neuropathy, TEAE related to teliso‐v” value (2.4 mg/kg Q3W, n = 3) of the same substance?
Answer: 1 (33) n (%)

Question: And the “Punctate keratitis, TEAE regardless of relationship” value (2.4 mg/kg Q3W, n = 3)?
Answer: 1 (33) n (%)

Question: And the “Punctate keratitis, TEAE related to teliso‐v” value (2.4 mg/kg Q3W, n = 3)?
Answer: 1 (33) n (%)

Question: What about the “Weight decreased, TEAE regardless of relationship” value (2.4 mg/kg Q3W, n = 3) of the same substance?
Answer: 1 (33) n (%)

Question: What about the “Weight decreased, TEAE related to teliso‐v” value (2.4 mg/kg Q3W, n = 3) of the same substance?
Answer: 1 (33) n (%)

Question: And the “White blood cell count decreased, TEAE regardless of relationship” value (2.4 mg/kg Q3W, n = 3)?
Answer: 0 n (%)

Question: And the “White blood cell count decreased, TEAE related to teliso‐v” value (2.4 mg/kg Q3W, n = 3)?
Answer: 0 n (%)

Question: And the Tolerability (2.7 mg/kg Q3 W, Japanese patients)?
Answer: well‐tolerated

Question: What about the “Alanine aminotransferase increased, TEAE regardless of relationship” value (2.7 mg/kg Q3W, n = 6) of the same substance?
Answer: 2 (33) n (%)

Question: What about the “Alanine aminotransferase increased, TEAE related to teliso‐v” value (2.7 mg/kg Q3W, n = 6) of the same substance?
Answer: 2 (33) n (%)

Question: What about the “Alopecia, TEAE regardless of relationship” value (2.7 mg/kg Q3W, n = 6) of the same substance?
Answer: 2 (33) n (%)

Question: And the “Alopecia, TEAE related to teliso‐v” value (2.7 mg/kg Q3W, n = 6)?
Answer: 2 (33) n (%)

Question: What about the “Anemia, TEAE regardless of relationship” value (2.7 mg/kg Q3W, n = 6) of the same substance?
Answer: 1 (17) n (%)

Question: And the “Aspartate aminotransferase increased, TEAE regardless of relationship” value (2.7 mg/kg Q3W, n = 6)?
Answer: 2 (33) n (%)

Question: And the “Aspartate aminotransferase increased, TEAE related to teliso‐v” value (2.7 mg/kg Q3W, n = 6)?
Answer: 2 (33) n (%)

Question: What about the “Back pain, TEAE regardless of relationship” value (2.7 mg/kg Q3W, n = 6) of the same substance?
Answer: 1 (17) n (%)

Question: And the “Constipation, TEAE regardless of relationship” value (2.7 mg/kg Q3W, n = 6)?
Answer: 2 (33) n (%)

Question: And the “Decreased appetite, TEAE regardless of relationship” value (2.7 mg/kg Q3W, n = 6)?
Answer: 1 (17) n (%)

Question: And the “Decreased appetite, TEAE related to teliso‐v” value (2.7 mg/kg Q3W, n = 6)?
Answer: 1 (17) n (%)

Question: And the “Diarrhea, TEAE regardless of relationship” value (2.7 mg/kg Q3W, n = 6)?
Answer: 1 (17) n (%)

Question: What about the “Fatigue, TEAE regardless of relationship” value (2.7 mg/kg Q3W, n = 6) of the same substance?
Answer: 1 (17) n (%)

Question: What about the “Fatigue, TEAE related to teliso‐v” value (2.7 mg/kg Q3W, n = 6) of the same substance?
Answer: 1 (17) n (%)

Question: And the “Hypoalbuminemia, TEAE regardless of relationship” value (2.7 mg/kg Q3W, n = 6)?
Answer: 2 (33) n (%)

Question: What about the “Malaise, TEAE regardless of relationship” value (2.7 mg/kg Q3W, n = 6) of the same substance?
Answer: 0 n (%)

Question: What about the “Malaise, TEAE related to teliso‐v” value (2.7 mg/kg Q3W, n = 6) of the same substance?
Answer: 0 n (%)

Question: What about the “Nausea, TEAE regardless of relationship” value (2.7 mg/kg Q3W, n = 6) of the same substance?
Answer: 2 (33) n (%)

Question: And the “Nausea, TEAE related to teliso‐v” value (2.7 mg/kg Q3W, n = 6)?
Answer: 2 (33) n (%)

Question: What about the “Neutrophil count decreased, TEAE regardless of relationship” value (2.7 mg/kg Q3W, n = 6) of the same substance?
Answer: 2 (33) n (%)

Question: What about the “Neutrophil count decreased, TEAE related to teliso‐v” value (2.7 mg/kg Q3W, n = 6) of the same substance?
Answer: 2 (33) n (%)

Question: And the “Peripheral neuropathy, TEAE regardless of relationship” value (2.7 mg/kg Q3W, n = 6)?
Answer: 0 n (%)

Question: And the “Peripheral neuropathy, TEAE related to teliso‐v” value (2.7 mg/kg Q3W, n = 6)?
Answer: 0 n (%)

Question: And the “Peripheral sensory neuropathy, TEAE regardless of relationship” value (2.7 mg/kg Q3W, n = 6)?
Answer: 3 (50) n (%)

Question: And the “Peripheral sensory neuropathy, TEAE related to teliso‐v” value (2.7 mg/kg Q3W, n = 6)?
Answer: 3 (50) n (%)

Question: What about the “Punctate keratitis, TEAE regardless of relationship” value (2.7 mg/kg Q3W, n = 6) of the same substance?
Answer: 1 (17) n (%)

Question: And the “Punctate keratitis, TEAE related to teliso‐v” value (2.7 mg/kg Q3W, n = 6)?
Answer: 1 (17) n (%)

Question: What about the “Weight decreased, TEAE regardless of relationship” value (2.7 mg/kg Q3W, n = 6) of the same substance?
Answer: 2 (33) n (%)

Question: And the “Weight decreased, TEAE related to teliso‐v” value (2.7 mg/kg Q3W, n = 6)?
Answer: 1 (17) n (%)

Question: What about the “White blood cell count decreased, TEAE regardless of relationship” value (2.7 mg/kg Q3W, n = 6) of the same substance?
Answer: 3 (50) n (%)

Question: What about the “White blood cell count decreased, TEAE related to teliso‐v” value (2.7 mg/kg Q3W, n = 6) of the same substance?
Answer: 3 (50) n (%)
